Experimental data from the supplement of paper PMC9112550, “Optimization of the antimicrobial peptide Bac7 by deep mutational scanning” (BMC Biology, 2022).

system: Escherichia coli TOP10; experiment: shrunken log2 fold change of peptide-encoding DNA abundance (4.5 h post-induction vs induction); higher = less antimicrobial activity (less host growth inhibition); conditions: time post-induction: 4.5 h; library: site-saturation at positions 5, 18, 19, 20
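Note: peptides expressed intracellularly from a pBAD plasmid library in pooled LB shake-flask culture, induced with 0.3% L-arabinose, DNA abundance read by NGS, three biological replicates, DESeq2 with apeglm shrinkage.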

Row | Sequence | shrunken log2 fold change
1 | RRIRDRPPRLPRPRPRPPICPRP | -0.224
2 | RRIRDRPPRLPRPRPRPPIEPRP | -0.0618
3 | RRIRDRPPRLPRPRPRPPKHPRP | 0.0331
4 | RRIRDRPPRLPRPRPRPPLSPRP | 0.0434
5 | RRIRDRPPRLPRPRPRPPLTPRP | 0.307
6 | RRIRDRPPRLPRPRPRPPMGPRP | 0.283
7 | RRIRDRPPRLPRPRPRPPNLPRP | -0.172
8 | RRIRDRPPRLPRPRPRPPNMPRP | 0.0281
9 | RRIRDRPPRLPRPRPRPPNNPRP | -0.261
10 | RRIRDRPPRLPRPRPRPPPLPRP | 0.586
11 | RRIRDRPPRLPRPRPRPPRCPRP | 0.551
12 | RRIRDRPPRLPRPRPRPPRIPRP | 0.185
13 | RRIRDRPPRLPRPRPRPPSPPRP | 0.494
14 | RRIRDRPPRLPRPRPRPPTEPRP | 0.274
15 | RRIRDRPPRLPRPRPRPPTVPRP | 0.381
16 | RRIRDRPPRLPRPRPRPPWHPRP | 0.148
17 | RRIRDRPPRLPRPRPRPPWSPRP | 0.31
18 | RRIRDRPPRLPRPRPRPPWYPRP | -0.0741
19 | RRIRDRPPRLPRPRPRPPYGPRP | -0.0609
20 | RRIRDRPPRLPRPRPRPPYVPRP | -0.0635
21 | RRIRDRPPRLPRPRPRPQAYPRP | 0.18
22 | RRIRDRPPRLPRPRPRPQCFPRP | 0.0363
23 | RRIRDRPPRLPRPRPRPQCTPRP | 0.191
24 | RRIRDRPPRLPRPRPRPQCYPRP | 0.0803
25 | RRIRDRPPRLPRPRPRPQDHPRP | 0.0862

Row | Sequence | shrunken log2 fold change
26 | RRIRDRPPRLPRPRPRPQDRPRP | -0.0933
27 | RRIRDRPPRLPRPRPRPQEMPRP | -0.01
28 | RRIRDRPPRLPRPRPRPQFMPRP | 1.04
29 | RRIRDRPPRLPRPRPRPQFTPRP | 0.0284
30 | RRIRDRPPRLPRPRPRPQFWPRP | 0.345
31 | RRIRDRPPRLPRPRPRPQGDPRP | 0.0878
32 | RRIRDRPPRLPRPRPRPQGFPRP | -0.00674
33 | RRIRDRPPRLPRPRPRPQIAPRP | 0.0211
34 | RRIRDRPPRLPRPRPRPQIIPRP | 0.0399
35 | RRIRDRPPRLPRPRPRPQMWPRP | -0.23
36 | RRIRDRPPRLPRPRPRPQNPPRP | -0.00133
37 | RRIRDRPPRLPRPRPRPQQAPRP | 0.0257
38 | RRIRDRPPRLPRPRPRPQSDPRP | -0.0119
39 | RRIRDRPPRLPRPRPRPQSFPRP | -0.0337
40 | RRIRDRPPRLPRPRPRPQSVPRP | -0.0496
41 | RRIRDRPPRLPRPRPRPQTCPRP | 0.0864
42 | RRIRDRPPRLPRPRPRPQVAPRP | 0.166
43 | RRIRDRPPRLPRPRPRPQYFPRP | 0.0205
44 | RRIRDRPPRLPRPRPRPQYIPRP | -0.246
45 | RRIRDRPPRLPRPRPRPRANPRP | 0.567
46 | RRIRDRPPRLPRPRPRPRAYPRP | -0.212
47 | RRIRDRPPRLPRPRPRPRCYPRP | 0.105
48 | RRIRDRPPRLPRPRPRPRDQPRP | 0.477
49 | RRIRDRPPRLPRPRPRPRDYPRP | 0.0389
50 | RRIRDRPPRLPRPRPRPRETPRP | 0.567

Row | Sequence | shrunken log2 fold change
51 | RRIRDRPPRLPRPRPRPREVPRP | 0.454
52 | RRIRDRPPRLPRPRPRPRFIPRP | -0.233
53 | RRIRDRPPRLPRPRPRPRFQPRP | 0.491
54 | RRIRDRPPRLPRPRPRPRGLPRP | 0.825
55 | RRIRDRPPRLPRPRPRPRGPPRP | 0.366
56 | RRIRDRPPRLPRPRPRPRLGPRP | 0.829
57 | RRIRDRPPRLPRPRPRPRLHPRP | 0.11
58 | RRIRDRPPRLPRPRPRPRLYPRP | -0.0462
59 | RRIRDRPPRLPRPRPRPRMDPRP | -0.0354
60 | RRIRDRPPRLPRPRPRPRMIPRP | -0.237
61 | RRIRDRPPRLPRPRPRPRMSPRP | -0.149
62 | RRIRDRPPRLPRPRPRPRNCPRP | -0.152
63 | RRIRDRPPRLPRPRPRPRNHPRP | -0.641
64 | RRIRDRPPRLPRPRPRPRQAPRP | 0.102
65 | RRIRDRPPRLPRPRPRPRQRPRP | 0.708
66 | RRIRDRPPRLPRPRPRPRSVPRP | 0.165
67 | RRIRDRPPRLPRPRPRPRVGPRP | 0.972
68 | RRIRDRPPRLPRPRPRPRVIPRP | -0.305
69 | RRIRDRPPRLPRPRPRPRVRPRP | 0.106
70 | RRIRDRPPRLPRPRPRPRVWPRP | 0.352
71 | RRIRDRPPRLPRPRPRPRWTPRP | 0.289
72 | RRIRDRPPRLPRPRPRPRYDPRP | -0.284
73 | RRIRDRPPRLPRPRPRPSCQPRP | 0.17
74 | RRIRDRPPRLPRPRPRPSDEPRP | 0.406
75 | RRIRDRPPRLPRPRPRPSDIPRP | -0.0124
